The results in this text go back to article doi:10.1101/2025.03.20.644192.

The target of the assay is Chicken CapZ complex, full length α/β (chicken) (UniProt P13127). Briefly: ITC. For orientation: In ITC the heat of successive injections is recorded.

The term Kd denotes the constant that tells how readily two partners part at equilibrium. Read a low Kd as a tighter complex.

Take “RavB, full length, untagged (RavB^WT) (natural protein)”: the Kd worked out at 10.8 nM.
